Data as given in CN105968201A (UNIV NANCHANG, dated 2016).

Experiments:
[1] = target: T1, 重组表达的PSMA胞外区蛋白 (UniProt Q04609 44-750, limits assumed); experiment: indirect phage ELISA, PSMA extracellular region coated at 5 μg/mL, HRP-anti-M13 detection
T1 construct: extracellular domain; Expressed from vector pRAG2a in HEK-293 cells, purified with HisTrap FF Crude and detected with an anti-His antibody; also called 前列腺特异性膜抗原膜外区; PSMA蛋白

[2] = target: T2, 前列腺特异性膜抗原 (PSMA) on LNCaP cells (UniProt Q04609 1-750, limits assumed); experiment: cell ELISA and immunofluorescence on fixed LNCaP cells (PSMA-positive) against MKN45 cells (PSMA-negative), anti-M13 detection
T2 construct: whole, on cells; Cells were fixed with 4% paraformaldehyde before the assay; also called prostate specific membrane antigen; LNCaP细胞(表达PSMA)
T2 sequence (Q04609 whole entry): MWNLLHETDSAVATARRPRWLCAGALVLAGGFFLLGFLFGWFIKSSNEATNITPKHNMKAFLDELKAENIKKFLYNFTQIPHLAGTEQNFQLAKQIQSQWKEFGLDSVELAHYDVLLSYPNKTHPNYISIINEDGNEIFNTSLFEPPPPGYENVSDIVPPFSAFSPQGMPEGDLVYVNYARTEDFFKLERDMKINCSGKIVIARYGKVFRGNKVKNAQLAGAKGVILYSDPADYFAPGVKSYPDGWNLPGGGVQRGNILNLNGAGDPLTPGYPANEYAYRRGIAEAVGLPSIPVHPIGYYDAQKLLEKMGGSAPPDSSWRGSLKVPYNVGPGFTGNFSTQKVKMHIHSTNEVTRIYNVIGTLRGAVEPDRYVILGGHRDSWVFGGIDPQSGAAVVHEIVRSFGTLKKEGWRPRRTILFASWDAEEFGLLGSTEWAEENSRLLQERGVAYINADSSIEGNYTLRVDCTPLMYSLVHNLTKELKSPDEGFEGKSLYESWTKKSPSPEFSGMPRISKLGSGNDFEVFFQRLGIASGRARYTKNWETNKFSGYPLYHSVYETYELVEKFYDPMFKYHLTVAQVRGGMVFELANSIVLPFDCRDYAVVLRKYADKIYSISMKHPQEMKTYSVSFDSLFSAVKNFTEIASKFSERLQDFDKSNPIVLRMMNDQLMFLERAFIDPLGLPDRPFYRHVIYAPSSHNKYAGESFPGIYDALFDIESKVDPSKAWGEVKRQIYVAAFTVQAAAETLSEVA

T1 sequence (Q04609 44-750 limits assumed): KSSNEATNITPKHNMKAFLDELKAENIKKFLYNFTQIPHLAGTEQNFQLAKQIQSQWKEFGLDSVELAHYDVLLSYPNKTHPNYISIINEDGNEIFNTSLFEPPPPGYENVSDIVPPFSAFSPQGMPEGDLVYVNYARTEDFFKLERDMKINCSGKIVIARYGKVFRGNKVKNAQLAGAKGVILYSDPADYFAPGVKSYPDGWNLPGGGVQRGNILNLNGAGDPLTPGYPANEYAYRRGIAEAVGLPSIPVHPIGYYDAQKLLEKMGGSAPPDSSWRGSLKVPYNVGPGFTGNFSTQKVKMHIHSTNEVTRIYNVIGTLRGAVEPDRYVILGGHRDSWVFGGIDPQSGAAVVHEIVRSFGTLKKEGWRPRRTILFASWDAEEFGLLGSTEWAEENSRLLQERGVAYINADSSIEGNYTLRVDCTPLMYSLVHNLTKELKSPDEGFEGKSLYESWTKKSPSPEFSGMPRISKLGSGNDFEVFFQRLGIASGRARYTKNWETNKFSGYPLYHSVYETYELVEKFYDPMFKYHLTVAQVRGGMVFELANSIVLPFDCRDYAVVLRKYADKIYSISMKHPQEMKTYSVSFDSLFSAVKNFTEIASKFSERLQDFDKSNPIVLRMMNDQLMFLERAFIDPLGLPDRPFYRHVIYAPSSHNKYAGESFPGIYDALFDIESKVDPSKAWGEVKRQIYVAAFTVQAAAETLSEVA

binding result [1]: binds
binding result [2]: binds
B1: 抗前列腺特异性膜抗原单域重链抗体噬菌体阳性克隆 (VHH)
VHH: QVQLVESGGGLVQAGGSLRLSCAASGRFSRYAMGWFRQAPGKEREFIASISRSGGTTYYGDSVKGRFTISRDNAKNTVYLQMNTLKAEDTAVYYCAARTKGFGLRGQYHYWGQGTQVTVSS
notes: also called 针对前列腺特异性膜抗原的单域重链抗体阳性克隆; 展示本发明所述纳米抗体的噬菌体克隆
